Laboratory results reported in article PMC2940758, “The N-Terminal Domain of the Arenavirus L Protein Is an RNA Endonuclease Essential in mRNA Transcription”.

Target: T1, NL1 (N-terminal endonuclease domain of L protein) (Lymphocytic choriomeningitis virus …, UniProt P14240 1-196)
T1 sequence: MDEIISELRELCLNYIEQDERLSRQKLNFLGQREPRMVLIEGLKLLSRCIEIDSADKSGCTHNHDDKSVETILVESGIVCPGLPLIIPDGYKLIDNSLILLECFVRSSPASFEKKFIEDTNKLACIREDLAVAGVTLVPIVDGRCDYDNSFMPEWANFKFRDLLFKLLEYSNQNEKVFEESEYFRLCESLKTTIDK
Test: EMSA
Details: protein: recombinant; tags: N-terminal His6; label: 5'-32P; unpaired

AUUUUGUUUUUAAUAUUUC (ssRNA) [19-mer unstructured RNA]
binding result: binds
